# From patent publication US10774143 (LA JOLLA INSTITUTE FOR ALLERGY AND IMMUNOLOGY, dated 2020)
# Experiments:
# [1] = biological target: SWAP-70-like adaptor of T cells (SLAT), endogenous mouse protein (mouse) (UniProt Q8C2K1); experiment: cell-based or functional assay
# [2] = biological target: SWAP-70-like adaptor of T cells (SLAT), endogenous mouse protein (mouse) (UniProt Q8C2K1); experiment: co-IP of SLAT and IP3R1 from CD4+ T cells pre-incubated with TAT protein, densitometry against control TAT-HA
# [3] = biological target: T1, Flag-tagged IP3R1-f2.1 (residues 346-490) (Homo sapiens (Human), UniProt Q14643 346-490); experiment: co-IP from Jurkat-TAg cells cotransfected with Flag-IP3R1-f2.1
# T1 construct: not shown: Flag tag
binding result [3],Molecule,"anti-CD3/CD28-stimulated IFNγ production by CD4+ T cells (ELISA), reduction [1] [%]",percent reduction of the SLAT-IP3R1 interaction [2] [%]
–,TAT-HA-2.1 Δ18 fusion protein (TAT-HA fused to IP3R1 residues 346-490 deleted of residues 400-417) (from UniProt Q14643 346-490),15 to 20,20
binds,"Myc-tagged SLAT putative EF-hand domain (other, not shown: Myc tag downstream of the insert (pEF-Myc-His A/C vector)) MALRKELLKSIWYAFTALDVEKSGKVSKSQLKVLSHNLYTVLHIPHDPVALEEHFRDDDDGPVSSQGYMPYL",–,–
